Laboratory results from US20230114801A1 (SYSTIMMUNE, published 2023).

What was measured:
human HER3 = biological target: T1, human HER3 (human, UniProt P21860 20-643); assay: BLI (Octet), binder on AHC sensor, 200 nM human HER3, 1:1 fit
T1 construct: Soluble antigen in Octet; bought; also called human HER3 (Acro ER3-H5223)

human CD3 [1] = biological target: T2, human CD3 (human, UniProt P07766 23-126; P04234 22-105); assay: BLI (Octet), binder on AHC sensor, 100 nM human CD3, 1:1 fit
T2 construct: also called His-tagged human CD3; human CD3 (Acro CDD-H52W1)

human CD3 [2] = biological target: T2, human CD3; assay: BLI (Octet), binder on AHC sensor, His-tagged human CD3 (series from 200 nM or single 100 nM), 1:1 fit
CD19 = biological target: T3, CD19 (UniProt P15391 20-291, limits assumed); assay: BLI (Octet), binder on AHC sensor; antigen conditions not stated
T3 sequence (looked up): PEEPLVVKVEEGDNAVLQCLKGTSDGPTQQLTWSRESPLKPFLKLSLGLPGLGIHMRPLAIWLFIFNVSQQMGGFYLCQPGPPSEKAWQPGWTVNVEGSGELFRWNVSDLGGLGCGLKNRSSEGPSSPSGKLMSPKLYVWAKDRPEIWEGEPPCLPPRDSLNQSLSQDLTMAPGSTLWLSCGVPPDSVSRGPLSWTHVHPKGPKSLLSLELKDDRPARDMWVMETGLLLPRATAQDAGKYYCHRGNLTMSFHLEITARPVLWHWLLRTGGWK

human PD-L1 = biological target: T4, human PD-L1 (human, UniProt Q9NZQ7 19-238); assay: as above
T4 construct: Soluble antigen in Octet; bought; also called human PD-L1 (Acro PD1-H5229)

human 4-1BB = biological target: T5, human 4-1BB (human, UniProt Q07011 24-186, limits assumed); assay: as above
T5 construct: Soluble antigen in Octet; construct not described

B1: SI-75X9 (bispecific antibody, human IgG1, kappa, L234A L235A)
chain 1: QVQLQESGGRLVQPGEPLSLTCKTSGIDLSSNAIGWVRQAPGKGLEWIGVIFGSGNTYYASWAKGRFTISRSTSTVYLKMNSLRSEDTAIYYCARGGYSSDIWGQGTLVTVSSASTKGPSVFPLAPSSKSTSGGTAALGCLVKDYFPEPVTVSWNSGALTSGVHTFPAVLQSSGLYSLSSVVTVPSSSLGTQTYICNVNHKPSNTKVDKRVEPKSCDKTHTCPPCPAPEAAGGPSVFLFPPKPKDTLMISRTPEVTCVVVDVSHEDPEVKFNWYVDGVEVHNAKTKPREEQYNSTYRVVSVLTVLHQDWLNGKEYKCAVSNKALPAPIEKTISKAKGQPREPQVYTLPPSRDELTKNQVSLSCAVKGFYPSDIAVEWESNGQPENNYKTTPPVLDSDGSFFLVSKLTVDKSRWQQGNVFSCSVMHEALHNHYTQKSLSLSPG
chain 2: QVQLVQSGGGLVQAGGSLSLSCAFSGRTFSMYTMGWFRQAPGKEREFVAANRGRGLSPDIADSVNGRFTISRDNAKNTLYLQMDSLKPEDTAVYYCAADLQYGSSWPQRSSAEYDYWGQGTTVTVSSGGGGSGGGGSDPQLTQSPSSLSATVGQRVTINCQSSQSVAKNNNLAWFQQKPGKPPKLLIYSASTLAAGVPSRFSGSGSGTQFTLTITRVQSEDFATYYCSARDSGNIQSFGGGTRVEIKRTVAAPSVFIFPPSDEQLKSGTASVVCLLNNFYPREAKVQWKVDNALQSGNSQESVTEQDSKDSTYSLSSTLTLSKADYEKHKVYACEVTHQGLSSPVTKSFNRGECGGDKTHTCPPCPAPEAAGGPSVFLFPPKPKDTLMISRTPEVTCVVVDVSHEDPEVKFNWYVDGVEVHNAKTKPREEQYNSTYRVVSVLTVLHQDWLNGKEYKCAVSNKALPAPIEKTISKAKGQPREPQVYTLPPSRDELTKNQVSLWCLVKGFYPSDIAVEWESNGQPENNYKTTPPVLDSDGSFFLYSKLTVDKSRWQQGNVFSCSVMHEALHNRFTQKSLSLSPG
notes: bi-miniGNC; D2 αHER3 VHH, D3 αCD3* (Fab)
In the case of B1, the Kd (human HER3) is reported as 3.86 nM and the Kd (human CD3 [1]) is reported as 84.2 nM.

B2: SI-68P18 (other)
chain 1: DVQMTQSPSTLSATVGQRVTINCQASESISSWLAWYQQKPGQPPKLLIYEASKLASGVPSRFSGSGSGTEFTLTISSLQSDDFATYYCQGYFYFISRTYVNSFGGGTRVEIKGGGGSGGGGSGGGGSGGGGSQQLLESGGRLIKPGATLRLTCKTSGFTISTNAMSWVRQPPGKGLEWIGVITGRDITYYASWAKGRFTISKTSINTVFLQMRSLRAEDTAVYYCARDGGSSAITSNNIWGRGTLVTVSSGGGGSGGGGSQVQLQQSGPGLVKPSETLSITCTVSGFSLTNYGVHWIRQAPGKGLEWLGVIWSGGNTDYNTPFTSRFTITKDNSKNQVYFKLRSVRADDTAIYYCARALTYYDYEFAYWGQGTLVTVSSASTKGPSVFPLAPSSKSTSGGTAALGCLVKDYFPEPVTVSWNSGALTSGVHTFPAVLQSSGLYSLSSVVTVPSSSLGTQTYICNVNHKPSNTKVDKRVEPKSCDKTHTCPPCPAPEAAGGPSVFLFPPKPKDTLMISRTPEVTCVVVDVSHEDPEVKFNWYVDGVEVHNAKTKPREEQYNSTYRVVSVLTVLHQDWLNGKEYKCAVSNKALPAPIEKTISKAKGQPREPQVYTLPPSRDELTKNQVSLSCAVKGFYPSDIAVEWESNGQPENNYKTTPPVLDSDGSFFLVSKLTVDKSRWQQGNVFSCSVMHEALHNHYTQKSLSLSPGGGGGSGGGGSDVVMTQSPSSVSASVGDRVTITCQASQNIRTYLSWYQQKPGKAPKLLIYAAANLASGVPSRFSGSGSGTDFTLTISDLEPGDAATYYCQSTYLGTDYVGGAFGGGTKLTVLGGGGSGGGGSGGGGSGGGGSEVQLVESGGGLVQPGGSLRLSCTASGFTISSYHMQWVRQAPGKGLEYIGTISSGGNVYYASSARGRFTISRPSSKNTVDLQMNSLRAEDTAVYYCARDSGYSDPMWGQGTLVTVSS
chain 2: ENVLTQSPASLSASPGERVTITCSASSSVSYMHWYQQKPGQAPKLWIYDTSKLASGVPSRFSGSGSGNDHTLTISSMEPEDFATYYCFQGSVYPFTFGQGTKVTVLGGGGSGGGGSGGGGSGGGGSQVTLKESGPGLVQPGQTLSLTCAFSGFSLSTSGMGVGWIRQPPGKGLEWLAHIWWDDDKRYNPALKSRLTISKDTSKNQVYLQMNSLDAEDTAVYYCARMELWSYYFDYWGQGTLVTVSSGGGGSGGGGSEIVLTQSPSTLSVSPGERATFSCRASQSIGTNIHWYQQKPGKPPRLLIKYASESISGIPDRFSGSGSGTEFTLTISSVQSEDFAVYYCQQNNNWPTTFGPGTKLTVLRTVAAPSVFIFPPSDEQLKSGTASVVCLLNNFYPREAKVQWKVDNALQSGNSQESVTEQDSKDSTYSLSSTLTLSKADYEKHKVYACEVTHQGLSSPVTKSFNRGECGGDKTHTCPPCPAPEAAGGPSVFLFPPKPKDTLMISRTPEVTCVVVDVSHEDPEVKFNWYVDGVEVHNAKTKPREEQYNSTYRVVSVLTVLHQDWLNGKEYKCAVSNKALPAPIEKTISKAKGQPREPQVYTLPPSRDELTKNQVSLWCLVKGFYPSDIAVEWESNGQPENNYKTTPPVLDSDGSFFLYSKLTVDKSRWQQGNVFSCSVMHEALHNRFTQKSLSLSPGGGGGSGGGGSDIQMTQSPSTLSASVGDRVTITCQASQSISSHLNWYQQKPGKAPKLLIYKASTLASGVPSRFSGSGSGTEFTLTISSLQPDDFATYYCQQGYSWGNVDNVFGGGTKVTVLGGGGSGGGGSGGGGSGGGGSEVQLLESGGGLVQPGGSLSLSCAASGFSFSSGYDMCWVRQAPGKGLEWIACIAAGSAGITYDANWAKGRFTISRDNSKNTLYLQMNSLRAEDTAVYYCARSAFSFDYAMDLWGQGTLVTVSS
notes: penta-miniGNC; D1 αCD3*** (humanized framework 2), D2 αCD19, D3 αEGFR (Fab), D4 α4-1BB, D5 αPD-L1
B2 showed a Kd (human CD3 [2]) of 14.5 nM, a Kd (CD19) of 1.35 nM and a Kd (human PD-L1) of 1 nM. It also gave a Kd (human 4-1BB) of 7.51 nM.

B3: SI-68P19 (other)
chain 1: DVVMTQSPSSLSASVGDRVTISCQASESISSWLAWYQQKPGQAPKLLIYEASKLASGVPSRFSGSGSGTEFTLTISSLEPEDFATYYCQGYFYFISRTYVNSFGGGTKVEIKGGGGSGGGGSGGGGSGGGGSQQLVESGGGLVKPGGSLRLSCAASGFTISTNAMSWVRQAPGKGLEWVGVITGRDITYYASWAKGRFTISKTSKNTVYLQMNSLRAEDTAVYYCARDGGSSAITSNNIWGQGTLVTVSSGGGGSGGGGSQVQLQQSGPGLVKPSETLSITCTVSGFSLTNYGVHWIRQAPGKGLEWLGVIWSGGNTDYNTPFTSRFTITKDNSKNQVYFKLRSVRADDTAIYYCARALTYYDYEFAYWGQGTLVTVSSASTKGPSVFPLAPSSKSTSGGTAALGCLVKDYFPEPVTVSWNSGALTSGVHTFPAVLQSSGLYSLSSVVTVPSSSLGTQTYICNVNHKPSNTKVDKRVEPKSCDKTHTCPPCPAPEAAGGPSVFLFPPKPKDTLMISRTPEVTCVVVDVSHEDPEVKFNWYVDGVEVHNAKTKPREEQYNSTYRVVSVLTVLHQDWLNGKEYKCAVSNKALPAPIEKTISKAKGQPREPQVYTLPPSRDELTKNQVSLSCAVKGFYPSDIAVEWESNGQPENNYKTTPPVLDSDGSFFLVSKLTVDKSRWQQGNVFSCSVMHEALHNHYTQKSLSLSPGGGGGSGGGGSDVVMTQSPSSVSASVGDRVTITCQASQNIRTYLSWYQQKPGKAPKLLIYAAANLASGVPSRFSGSGSGTDFTLTISDLEPGDAATYYCQSTYLGTDYVGGAFGGGTKLTVLGGGGSGGGGSGGGGSGGGGSEVQLVESGGGLVQPGGSLRLSCTASGFTISSYHMQWVRQAPGKGLEYIGTISSGGNVYYASSARGRFTISRPSSKNTVDLQMNSLRAEDTAVYYCARDSGYSDPMWGQGTLVTVSS
chain 2: ENVLTQSPASLSASPGERVTITCSASSSVSYMHWYQQKPGQAPKLWIYDTSKLASGVPSRFSGSGSGNDHTLTISSMEPEDFATYYCFQGSVYPFTFGQGTKVTVLGGGGSGGGGSGGGGSGGGGSQVTLKESGPGLVQPGQTLSLTCAFSGFSLSTSGMGVGWIRQPPGKGLEWLAHIWWDDDKRYNPALKSRLTISKDTSKNQVYLQMNSLDAEDTAVYYCARMELWSYYFDYWGQGTLVTVSSGGGGSGGGGSEIVLTQSPSTLSVSPGERATFSCRASQSIGTNIHWYQQKPGKPPRLLIKYASESISGIPDRFSGSGSGTEFTLTISSVQSEDFAVYYCQQNNNWPTTFGPGTKLTVLRTVAAPSVFIFPPSDEQLKSGTASVVCLLNNFYPREAKVQWKVDNALQSGNSQESVTEQDSKDSTYSLSSTLTLSKADYEKHKVYACEVTHQGLSSPVTKSFNRGECGGDKTHTCPPCPAPEAAGGPSVFLFPPKPKDTLMISRTPEVTCVVVDVSHEDPEVKFNWYVDGVEVHNAKTKPREEQYNSTYRVVSVLTVLHQDWLNGKEYKCAVSNKALPAPIEKTISKAKGQPREPQVYTLPPSRDELTKNQVSLWCLVKGFYPSDIAVEWESNGQPENNYKTTPPVLDSDGSFFLYSKLTVDKSRWQQGNVFSCSVMHEALHNRFTQKSLSLSPGGGGGSGGGGSDIQMTQSPSTLSASVGDRVTITCQASQSISSHLNWYQQKPGKAPKLLIYKASTLASGVPSRFSGSGSGTEFTLTISSLQPDDFATYYCQQGYSWGNVDNVFGGGTKVTVLGGGGSGGGGSGGGGSGGGGSEVQLLESGGGLVQPGGSLSLSCAASGFSFSSGYDMCWVRQAPGKGLEWIACIAAGSAGITYDANWAKGRFTISRDNSKNTLYLQMNSLRAEDTAVYYCARSAFSFDYAMDLWGQGTLVTVSS
notes: penta-miniGNC; D1 αCD3**** (humanized framework 3), D2 αCD19, D3 αEGFR (Fab), D4 α4-1BB, D5 αPD-L1
For B3, the Kd (human CD3 [2]) was 16.7 nM, the Kd (CD19) was 3.44 nM and the Kd (human PD-L1) was 0.7 nM. The Kd (human 4-1BB) was 21.2 nM.
